Reference: US20240132578A1

What was measured:
Assay in all cases: cell-based or functional assay
[1] = target: HIV-1 envelope glycoprotein (Env) of isolate MGRM-C-019 (HIV-1)
[2] = target: HIV-1 Env of pseudovirus MGRM-F1-012 (clade F) (HIV-1)
[3] = target: HIV-1 envelope glycoprotein (Env) of isolate MGRM-C-002 (HIV-1)
[4] = target: HIV-1 Env of isolate SF162 (HIV-1) (UniProt P19550)
[5] = target: HIV-1 MGRM-G-009 Env (pseudovirus) (HIV-1)
[6] = target: HIV-1 Env of isolate 92WR021 (pseudovirus) (HIV-1)
[7] = target: HIV-1 92RW020 Env (HIV-1)
[8] = target: HIV-1 Env of isolate 92UG031 (pseudovirus) (HIV-1)
[9] = target: HIV-1 Env of isolate 93UG077 (pseudovirus) (HIV-1)
[10] = target: HIV-1 Env of isolate 93WR029 (pseudovirus) (HIV-1)
[11] = target: HIV-1 Env of pseudovirus isolate APV-13 (clade B) (HIV-1)
[12] = target: HIV-1 Env of pseudovirus isolate 6535.3 (clade B) (HIV-1)
[13] = target: HIV-1 Env of isolate 92UG037 (pseudovirus) (HIV-1)
[14] = target: HIV-1 Env of isolate 94UG103 (pseudovirus) (HIV-1)
[15] = target: HIV-1 Env of isolate MGRM-AE-005 (pseudovirus) (HIV-1)
[16] = target: HIV-1 Env of isolate 92WR024 (pseudovirus) (HIV-1)
[17] = target: HIV-1 Env of pseudovirus isolate MGRM-Chronic-B-001 (clade B) (HIV-1)
[18] = target: HIV-1 Env of isolate 92WR020 (pseudovirus) (HIV-1)
[19] = target: HIV-1 Env of isolate MGRM-AE-004 (pseudovirus) (HIV-1)
[20] = target: HIV-1 Env of isolate MGRM-AE-006 (pseudovirus) (HIV-1)

4970_K22 (PGT-144) (antibody), sequence (VH): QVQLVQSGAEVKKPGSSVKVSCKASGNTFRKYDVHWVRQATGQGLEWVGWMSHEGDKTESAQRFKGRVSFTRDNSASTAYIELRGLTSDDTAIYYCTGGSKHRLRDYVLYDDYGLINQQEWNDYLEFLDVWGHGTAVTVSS
4970_K22 (PGT-144) (antibody), sequence (VL): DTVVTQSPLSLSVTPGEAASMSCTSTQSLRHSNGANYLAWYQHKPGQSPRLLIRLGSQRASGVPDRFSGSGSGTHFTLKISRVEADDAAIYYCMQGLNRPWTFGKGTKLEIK
4980_N08 (PGT-143) (antibody), sequence (VH): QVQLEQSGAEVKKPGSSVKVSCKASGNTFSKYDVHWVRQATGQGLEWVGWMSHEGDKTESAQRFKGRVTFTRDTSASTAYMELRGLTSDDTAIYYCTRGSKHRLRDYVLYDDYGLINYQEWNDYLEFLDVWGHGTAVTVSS
4980_N08 (PGT-143) (antibody), sequence (VL): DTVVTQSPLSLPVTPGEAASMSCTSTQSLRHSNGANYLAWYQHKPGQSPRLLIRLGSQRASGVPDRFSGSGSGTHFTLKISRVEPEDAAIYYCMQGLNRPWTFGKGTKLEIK

Substance | IC50 (µg/ml), pseudovirus neutralization [1] | IC50 [2] | IC50 (µg/ml), pseudovirus neutralization [3] | IC50 (µg/ml), pseudovirus neutralization [4] | IC50 (µg/ml), pseudovirus neutralization [5] | IC50 (µg/mL), single-round pseudovirus neutralization [6] | IC50, pseudovirus neutralization [7] | IC50 (µg/mL), single-round pseudovirus neutralization [8] | IC50 (µg/mL), single-round pseudovirus neutralization [9] | IC50 (µg/mL), single-round pseudovirus neutralization [10] | IC50, pseudovirus neutralization [11] | IC50, pseudovirus neutralization [12] | IC50 (µg/mL), single-round pseudovirus neutralization [13] | IC50 (µg/mL), single-round pseudovirus neutralization [14] | IC50 (µg/mL), single-round pseudovirus neutralization [15] | IC50 (µg/mL), single-round pseudovirus neutralization [16] | IC50, pseudovirus neutralization [17] | IC50 (µg/mL), single-round pseudovirus neutralization [18] | IC50 (µg/mL), single-round pseudovirus neutralization [19] | IC50 (µg/mL), single-round pseudovirus neutralization [20]
2F5 (antibody) | > 50 µg/mL | > 50 µg/mL | 44.7 µg/mL | 2.52 µg/mL | 7.21 µg/mL |  |  |  |  |  |  |  |  |  |  |  |  |  |  | 
2G12 (antibody) | > 50 µg/mL | 1.81 µg/mL | > 50 µg/mL | 1.67 µg/mL | > 50 µg/mL |  |  |  |  |  |  |  |  |  |  |  |  |  |  | 
4E10 (antibody) | 3.49 µg/mL | 0.37 µg/mL | 18.2 µg/mL | 4.28 µg/mL | 1.34 µg/mL |  |  |  |  |  |  |  |  |  |  |  |  |  |  | 
4970_K22 (PGT-144) (antibody) |  |  |  |  |  | > 50 µg/mL | > 10 µg/mL | 2.17 µg/mL | > 50 µg/mL | 4.39 µg/mL | > 50 µg/mL | > 50 µg/mL | 8.24 µg/mL | > 50 µg/mL | > 50 µg/mL | 16.3 µg/mL | > 50 µg/mL | > 50 µg/mL | 0.104 µg/mL | > 50 µg/mL
4980_N08 (PGT-143) (antibody) |  |  |  |  |  | > 50 µg/mL | > 10 µg/mL | 0.095 µg/mL | > 50 µg/mL | 0.053 µg/mL | > 50 µg/mL | > 50 µg/mL | 0.854 µg/mL | > 50 µg/mL | > 50 µg/mL | 0.122 µg/mL | > 50 µg/mL | > 50 µg/mL | 0.002 µg/mL | > 50 µg/mL
